The target of the assay is T1, GST–Ubp3 (UBP3 cloned into pGEX4T, PEN253) (S. cerevisiae, UniProt Q01477 1-912).
T1 sequence (looked up): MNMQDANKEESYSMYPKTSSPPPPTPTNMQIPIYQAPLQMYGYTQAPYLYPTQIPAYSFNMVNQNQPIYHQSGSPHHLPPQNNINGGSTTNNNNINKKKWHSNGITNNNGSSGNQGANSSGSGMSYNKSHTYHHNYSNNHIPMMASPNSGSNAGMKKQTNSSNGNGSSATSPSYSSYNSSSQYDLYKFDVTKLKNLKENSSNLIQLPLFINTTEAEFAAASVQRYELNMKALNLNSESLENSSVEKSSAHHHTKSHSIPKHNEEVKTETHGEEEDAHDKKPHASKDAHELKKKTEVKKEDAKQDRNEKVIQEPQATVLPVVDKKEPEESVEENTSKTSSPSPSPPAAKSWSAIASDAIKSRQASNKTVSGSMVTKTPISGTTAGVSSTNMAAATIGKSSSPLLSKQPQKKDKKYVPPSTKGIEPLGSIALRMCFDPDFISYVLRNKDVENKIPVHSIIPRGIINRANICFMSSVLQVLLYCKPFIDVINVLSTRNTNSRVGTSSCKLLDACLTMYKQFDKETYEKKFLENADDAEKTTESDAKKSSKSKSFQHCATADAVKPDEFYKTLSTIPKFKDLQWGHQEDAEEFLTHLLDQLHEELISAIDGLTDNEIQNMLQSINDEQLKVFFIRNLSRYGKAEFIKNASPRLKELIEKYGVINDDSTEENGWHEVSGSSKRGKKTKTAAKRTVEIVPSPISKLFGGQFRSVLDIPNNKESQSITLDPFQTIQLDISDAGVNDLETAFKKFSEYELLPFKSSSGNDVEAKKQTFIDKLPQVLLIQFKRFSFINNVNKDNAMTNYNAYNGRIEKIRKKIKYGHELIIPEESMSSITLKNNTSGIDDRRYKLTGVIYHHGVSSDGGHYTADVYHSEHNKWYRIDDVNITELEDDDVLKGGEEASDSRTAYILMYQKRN
Kind of assay: pull-down.

B1: His-tagged Hog1 (enzyme, S. cerevisiae, UniProt P32485 1-435, looked up)
chain: MTTNEEFIRTQIFGTVFEITNRYNDLNPVGMGAFGLVCSATDTLTSQPVAIKKIMKPFSTAVLAKRTYRELKLLKHLRHENLICLQDIFLSPLEDIYFVTELQGTDLHRLLQTRPLEKQFVQYFLYQILRGLKYVHSAGVIHRDLKPSNILINENCDLKICDFGLARIQDPQMTGYVSTRYYRAPEIMLTWQKYDVEVDIWSAGCIFAEMIEGKPLFPGKDHVHQFSIITDLLGSPPKDVINTICSENTLKFVTSLPHRDPIPFSERFKTVEPDAVDLLEKMLVFDPKKRITAADALAHPYSAPYHDPTDEPVADAKFDWHFNDADLPVDTWRVMMYSEILDFHKIGGSDGQIDISATFDDQVAAATAAAAQAQAQAQAQVQLNMAAHSHNGAGTTGNDHSDIAGGNKVSDHVAANDTITDYGNQAIQYANEFQQ
With B1, the binding result is “binds”.

The values above are taken from PMC3160652 (The EMBO Journal, 2011).
